Biological target: the molecule itself
Experiment: non-reducing SDS-PAGE (intersubunit disulfide bond assay); purified StrepII-tagged protein dialysed overnight in 100 mM Tris-Cl pH 7.5, 2 M NaCl; no reducing reagent; diluted 1:1 in SDS-loading buffer, boiled 10 min, 16% SDS-PAGE, Coomassie stain; shows only covalently (disulfide) linked subunits

B1: OxsR (HVO_2970) wild type with a C-terminal StrepII tag (natural protein, Haloferax volcanii, UniProt D4GY41 1-123, looked up)
chain: MADAPDMGELMETEDPNFGQVLACVFGIQSHESRTYLALLDNPGSTVAELAEVLDRDRSNVNRSLTTLLDKGLTERKRRLLDPGGYVYQYTATPLPEAKEMMHAALDEWAEDVHARIDAFGES
notes: 123 aa, 14 kDa; UniProtKB D4GY41; also called OxsR-StrepII; OxsR wt; source: H. volcanii SH125 (H26 ΔoxsR) carrying pJAM4019, purified (Strep-Tactin Superflow Plus resin, 2 M NaCl buffers); not shown: StrepII, C-terminal, kept
Does B1 bind?
Result: binds

— publication PMC9426492, “TrmB Family Transcription Factor as a Thiol-Based Regulator of Oxidative Stress Response” (mBio, 2022)
